In experiment [1] the target is HLA-A*01:01. Description: IEDB peptide-MHC binding, purified MHC/competitive/fluorescence; filed as Kd, often an IC50 or EC50 that approximates it; ≥ and ≤ were set here for values at or beyond the usual limits of such assays. To be noted: source organism: Human betaherpesvirus 7.
The next experiment concerns the target HLA-A*29:02. The description is as above. Particulars: source organism: Human betaherpesvirus 7.
The next experiment has as its target HLA-B*27:05. Description: IEDB peptide-MHC binding, purified MHC/direct/fluorescence; filed as Kd, often an IC50 or EC50 that approximates it; ≥ and ≤ were set here for values at or beyond the usual limits of such assays.
In a further experiment the target is HLA-A*31:01. Described as above.
For a further experiment, the target named is HLA-B*40:01. Described as above.
The target in the next experiment is HLA-B*58:01. The experiment is described as above. To be noted: source organism: Coxiella burnetii.
The target of the next experiment is HLA-B*07:02. The description is as above.
In experiment [2] the target is HLA-B*08:01. Described as above.
Experiment [3] has as its target HLA-A*01:01. The description is as above.
The target in the next experiment is HLA-A*30:01. The experiment is described as above. To be noted: source organism: Coxiella burnetii.
A further experiment has as its target HLA-B*35:01. The description is as above.
A further experiment has as its target HLA-A*69:01. The description is as above.
The target in experiment [4] is HLA-B*15:01. The experiment is described as above.
In experiment [5] the target is HLA-A*02:01. The experiment is described as above.
The next experiment concerns the target HLA-B*44:02. Described as above.
The target of experiment [6] is HLA-A*03:01. Described as above.
A further experiment deals with HLA-A*26:01. The description is as above.
Experiment [7] concerns the target HLA-A*11:01. The description is as above.
For a further experiment, the target named is HLA-A*24:02. Description: IEDB peptide-MHC binding, purified MHC/competitive/fluorescence; ≥ and ≤ were set here for values at or beyond the usual limits of such assays.
Experiment [8] addresses HLA-A*01:01. Described as above.
In experiment [9] the target is HLA-B*15:01. The experiment is described as above.
The target in experiment [10] is HLA-A*02:01. The description is as above.
The target in the next experiment is HLA-B*48:01. Description: IEDB peptide-MHC binding, purified MHC/direct/fluorescence; filed as Kd, often an IC50 or EC50 that approximates it; ≥ and ≤ were set here for values at or beyond the usual limits of such assays. To be noted: source organism: Burkholderia mallei.
The next experiment concerns the target HLA-C*12:03. The experiment is described as above.
For a further experiment, the target named is HLA-B*46:01. The experiment is described as above. To be noted: source organism: Burkholderia mallei.
Experiment [11] has as its target HLA-B*08:01. Description: IEDB peptide-MHC binding, purified MHC/competitive/fluorescence; filed as Kd, often an IC50 or EC50 that approximates it; ≥ and ≤ were set here for values at or beyond the usual limits of such assays.
Another experiment deals with HLA-A*24:03. Kind of experiment: IEDB peptide-MHC binding, purified MHC/direct/fluorescence; filed as Kd, often an IC50 or EC50 that approximates it; ≥ and ≤ were set here for values at or beyond the usual limits of such assays. To be noted: source organism: Vibrio vulnificus.
In the next experiment the target is HLA-B*08:02. The description is as above.
A further experiment deals with HLA-C*05:01. The description is as above. To be noted: source organism: Homo sapiens.
Experiment [12] deals with HLA-A*03:01. Description: IEDB peptide-MHC binding, purified MHC/competitive/fluorescence; ≥ and ≤ were set here for values at or beyond the usual limits of such assays.
For experiment [13], the target named is HLA-A*11:01. The experiment is described as above.
The mark [14] stands for this setting: source organism: Coxiella burnetii.
Setting [15] is: source organism: Vaccinia virus Copenhagen.
[16] abbreviates: source organism: Burkholderia mallei ATCC 23344.
Where [17] appears, read: source organism: Vibrio vulnificus.
Setting [18] is: source organism: Zaire ebolavirus.
The mark [19] stands for this setting: source organism: Escherichia coli O157:H7.
The mark [20] stands for this setting: source organism: Vaccinia virus.
The mark [21] stands for this setting: source organism: Vaccinia virus WR.

For 15 sequences, Kd and IC50 results are on record in the Immune Epitope Database (IEDB).

With LSMFVTNKK, the Kd (as a rule, a measure of binding affinity in units of concentration) in the experiment with HLA-A*01:01 [1] worked out at 3 µM; with HLA-A*29:02, 0.0627 µM.
With VPPESVEAA, the Kd with HLA-B*27:05 (setting [14]) is not below 20 µM; in the experiment with HLA-A*31:01 (setting [14]), not below 20 µM; with HLA-B*40:01 (setting [14]) it was not below 20 µM; with HLA-B*58:01, not below 20 µM; with HLA-B*07:02 (setting [14]), 12.2 µM; with HLA-B*08:01 [2] (setting [14]), not below 20 µM. For the same sequence, the Kd with HLA-A*01:01 [3] (setting [14]) is not below 20 µM; with HLA-A*30:01, not below 20 µM; in the experiment with HLA-B*35:01 (setting [14]), 1.56 µM; in the experiment with HLA-A*69:01 (setting [14]) it was not below 20 µM; in the experiment with HLA-B*15:01 [4] (setting [14]), not below 20 µM; with HLA-A*02:01 [5] (setting [14]) it was not below 20 µM. Besides, the Kd in the experiment with HLA-B*44:02 (setting [14]), with HLA-A*03:01 [6] (setting [14]), in the experiment with HLA-A*26:01 (setting [14]) and in the experiment with HLA-A*11:01 [7] (setting [14]) was not below 20 µM in each case.
In the case of LSSQMTSTF, the IC50 (commonly the concentration needed to halve the response being measured) is 0.788 µM with HLA-A*24:02 (setting [15]), not below 129 µM with HLA-A*01:01 [8] (setting [15]), 4.85 µM in the experiment with HLA-B*15:01 [9] (setting [15]) and not below 155 µM with HLA-A*02:01 [10] (setting [15]).
On to YMKAPSGAL, for which the Kd with HLA-B*48:01 worked out at 0.047 µM; in the experiment with HLA-B*07:02 (setting [16]), 0.009 µM; in the experiment with HLA-B*35:01 (setting [16]), 3.13 µM; in the experiment with HLA-C*12:03 (source organism: Burkholderia mallei SAVP1), 0.005 µM; in the experiment with HLA-B*15:01 [4] (source organism: Burkholderia mallei) it was 0.0385 µM; with HLA-B*46:01 it was 1.95 µM.
On to LAARKARAA, for which, in the experiment with HLA-B*08:01 [11] (source organism: Escherichia coli), the Kd came to 0.644 µM.
For the sequence NGYRWQHQI, the Kd is not below 20 µM with HLA-B*27:05 (setting [17]); not below 20 µM in the experiment with HLA-A*31:01 (setting [17]); not below 20 µM in the experiment with HLA-B*40:01 (setting [17]); 7.53 µM with HLA-A*24:03; not below 20 µM with HLA-A*01:01 [3] (setting [17]); 0.843 µM in the experiment with HLA-B*35:01 (setting [17]). In addition, the Kd in the experiment with HLA-A*69:01 (setting [17]) was 0.0174 µM; in the experiment with HLA-B*15:01 [4] (setting [17]) it was not below 20 µM; in the experiment with HLA-A*02:01 [5] (setting [17]), 1.35 µM; in the experiment with HLA-B*44:02 (setting [17]), not below 20 µM; with HLA-A*03:01 [6] (setting [17]), not below 20 µM; with HLA-A*26:01 (setting [17]), not below 20 µM. This sequence came in with a Kd in the experiment with HLA-A*11:01 [7] (setting [17]) not below 20 µM.
The sequence VINWKGKEL returned a Kd with HLA-B*08:02 (source organism: dengue virus type 3) not below 20 µM.
As for LVMAPRTVL, the Kd in the experiment with HLA-B*07:02 (source organism: Homo sapiens) is 0.179 µM; in the experiment with HLA-C*05:01 it was 2.04 µM; in the experiment with HLA-A*69:01 (source organism: Homo sapiens), 3.61 µM; with HLA-C*12:03 (source organism: Homo sapiens) it was 0.102 µM; with HLA-B*15:01 [4] (source organism: Homo sapiens) it was 0.731 µM; with HLA-A*02:01 [5] (source organism: Homo sapiens) it was not below 39.5 µM. In the experiment with HLA-A*11:01 [7] (source organism: Homo sapiens), this sequence registered a Kd of 10.3 µM.
In the case of RVNPGTYVY, the IC50 with HLA-A*01:01 [8] (source organism: Variola virus) came out at 10.3 µM; with HLA-B*15:01 [9] (source organism: Variola virus), 9.02 µM; in the experiment with HLA-A*03:01 [12] (source organism: Variola virus), 4.32 µM; with HLA-A*11:01 [13] (source organism: Variola virus), 0.701 µM.
Take YSTTIRYQA: the IC50 was not below 207 µM with HLA-A*01:01 [8] (setting [18]) and 42.3 µM in the experiment with HLA-A*02:01 [10] (setting [18]).
Sequence FLRRRRAAL returned a Kd with HLA-B*08:02 (setting [16]) of 0.071 µM.
Consider IAIPAHVRL, for which the equilibrium dissociation constant (Kd) with HLA-B*27:05 (setting [19]) was not below 20 µM; with HLA-A*31:01 (setting [19]) it was not below 20 µM; in the experiment with HLA-B*40:01 (setting [19]), not below 5 µM; in the experiment with HLA-B*07:02 (setting [19]) it was 8.52 µM; with HLA-B*08:01 [2] (setting [19]) it was 4.46 µM; with HLA-A*01:01 [3] (setting [19]) it was not below 20 µM. Besides, the Kd was 0.392 µM with HLA-B*35:01 (setting [19]); 0.227 µM in the experiment with HLA-A*69:01 (setting [19]); 1.81 µM with HLA-B*15:01 [4] (setting [19]); not below 20 µM with HLA-A*02:01 [5] (setting [19]); not below 20 µM in the experiment with HLA-B*44:02 (setting [19]); not below 20 µM with HLA-A*03:01 [6] (setting [19]). Further, the Kd with HLA-A*26:01 (setting [19]) and with HLA-A*11:01 [7] (setting [19]) was not below 20 µM throughout.
TLHFKQYEF: the Kd in the experiment with HLA-B*08:01 [11] (source organism: Influenza A virus (A/Wyoming/3/2003-X-147(H3N2))) is 0.433 µM.
Regarding AMEKSSKYY, the IC50 in the experiment with HLA-A*24:02 (setting [20]) is not below 962 µM; with HLA-A*01:01 [8] (setting [20]), 28.5 µM; with HLA-B*15:01 [9] (setting [20]), 11 µM; with HLA-A*02:01 [10] (setting [20]), not below 1170 µM; with HLA-A*03:01 [12] (setting [20]) it was not below 142 µM; in the experiment with HLA-A*11:01 [13] (setting [20]), not below 195 µM.
Consider PIDSHKGYV, for which the results for the IC50 with HLA-A*01:01 [8] (setting [21]) and with HLA-A*02:01 [10] (setting [21]) were 29.4 µM and not below 129 µM, respectively.
